In assay [1] the test system is COS-7 cells. The experiment in a line: Immunofluorescence of ARTS and XIAP localization in COS-7 cells. The assay is classed as cell-based, African Green Monkey. The note with it: COS-7 cells, 50 μM etoposide for 16 hour, with BOC. Here is the method: Cells were fixed with 4% paraformaldehyde in PBS for 20 min at room temperature, washed with PBS, permeabilized with 0.5% Triton-X in PBS for 5 min, and incubated with primary antibodies for 2 hours at room temperature (rabbit polyclonal anti-ARTS (1:20,000; Sigma), monoclonal anti-ARTS, and/or monoclonal anti-XIAP (1:500; used in subsequent Examples). Cells were washed three times with PBS/0.1% Triton-X and incubated with FITC conjugated anti-mouse and Rhodamin^TX-conjugated anti-rabbit secondary antibodies (Jackson). Images were analyzed using a confocal laser microscope (Zeiss LSM 510). Mitochondria were visualized with MitoTracker® Red CMXRos (Molecular Probes/Invitrogen).
For caspase inhibition, we added […] of BOC-Asp(Ome)CH2F (Enzyme Systems Products) one hour prior to addition of the apoptotic agents.

For assay [2], the system named is XIAP. The experiment in a line: XIAP protein levels by Western blot in COS-7 cells. Format: cell-based, African Green Monkey. Here is the method:
(§1) Protein extracts were prepared with lysis buffer (150 mM NaCl, 50 mM Tris-HCl (pH 8), 1% NP-40, 0.5% deoxycholate acid) with protease inhibitors. Lysates containing equal amounts of total protein were pre-cleared overnight with 1 mg mouse IgG (Sigma) coupled with protein A/G-Sepharose mix (Amersham Biosciences) and the beads centrifuged. Supernatants were immuno-precipitated using 5 μl of anti-ARTS antibody for 4 h, anti-XIAP antibody, rabbit anti-myc antibody, or mouse IgG (negative control). Protein A/G Sepharose beads were added for 1 hour and washed four times with PBS. Antibodies against XIAP (as above), Myc (Santa Cruz), or anti-ARTS (NT) antibodies directed against the common N′ terminus of ARTS and H5 (ProSci Incorporated) were used for Western blot.
(§2) Stably transfected COS-7 pE-ARTS cells were generated using the pEF1-IRES vector (Hobbs S et al, Biochem Biophys Res Commun 252: 368-372, 1998). The construct contains an EF-1 promoter followed by a multi cloning site, an EMC (Encephalomyocarditis virus) internal ribosome entry sites (IRES), and a puromycin resistance gene. AU5-tagged ARTS was inserted into the XhoI site downstream of the EF-1 promoter. The construct was stably transfected into COS-7 cells. The cells were maintained in medium containing 4 μg/ml puromycin.
Cells were treated for 2 hours with […] of the proteasome inhibitor (MG132, Calbiochem) prior to induction of apoptotis.

The test system of assay [3] is XIAP. The experiment in a line: Co-immunoprecipitation of ARTS-XIAP complexes in COS-7 cells. The assay is classed as cell-based, African Green Monkey. The method, then: as §1
For assay [4], the target named is T1, Myc epitope-tagged wild-type XIAP (Homo sapiens (Human), UniProt P98170 1-497).
T1 construct: Expressed by transient transfection in COS-7 cells and used as cell lysate; The construct came from Dr. Colin S. Duckett; also called myc-tagged XIAP; mycXIAP
T1 sequence (P98170 whole entry): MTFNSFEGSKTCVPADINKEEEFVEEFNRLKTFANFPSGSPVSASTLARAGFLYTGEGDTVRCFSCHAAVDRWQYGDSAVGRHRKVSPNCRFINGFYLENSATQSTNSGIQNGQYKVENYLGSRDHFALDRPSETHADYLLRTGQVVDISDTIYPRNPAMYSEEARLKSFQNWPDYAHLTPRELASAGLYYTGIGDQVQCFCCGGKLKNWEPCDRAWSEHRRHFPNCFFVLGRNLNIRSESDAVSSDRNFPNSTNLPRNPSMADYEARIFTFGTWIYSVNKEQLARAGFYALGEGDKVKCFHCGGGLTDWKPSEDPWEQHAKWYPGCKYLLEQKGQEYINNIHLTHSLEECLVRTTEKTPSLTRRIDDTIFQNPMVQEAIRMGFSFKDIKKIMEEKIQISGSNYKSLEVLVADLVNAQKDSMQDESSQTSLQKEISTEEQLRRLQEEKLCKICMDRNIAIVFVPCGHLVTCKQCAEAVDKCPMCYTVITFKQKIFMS
The experiment in a line: co-IP with agarose-anti-myc beads from co-transfected COS-7 cells, Western blot. Here is the method:
FIG. 4. ARTS binding to XIAP is specific and related to its apoptotic function. A. In-vivo binding of ARTS to XIAP was tested using co-IP with anti-ARTS, anti-XIAP or mouse IgG as a negative control, followed by anti-XIAP Western blot. B. Lysates of COS-7 cells co-transfected with pcDNA-mycXIAP and AU5-ARTS, AU5-ARTSmGTP or H5 DC were co-immunoprecipitated using agarose-anti-myc beads, followed by Western blot analysis with rabbit anti-myc and anti-ARTS. […] COS-7 cells were transiently transfected with AU5-ARTS, AU5-ARTSmGTP, AU5-ARTSDC or AU5-PNUTL2, and percent apoptosis determined. […] P-values (Anova) were 0.03 for non-treated cells, compared to 0.000004 for 1 hr and 0.00001 for 3 hr STS treatment.
Protein extracts were prepared with lysis buffer (150 mM NaCl, 50 mM Tris-HCl (pH 8), 1% NP-40, 0.5% deoxycholate acid) with protease inhibitors. Lysates containing equal amounts of total protein were pre-cleared overnight with 1 mg mouse IgG (Sigma) coupled with protein A/G-Sepharose mix (Amersham Biosciences) and the beads centrifuged. Supernatants were immuno-precipitated using 5 μl of anti-ARTS antibody for 4 h, anti-XIAP antibody, rabbit anti-myc antibody, or mouse IgG (negative control). Protein A/G Sepharose beads were added for 1 hour and washed four times with PBS. […]
(In general: In western blotting, separated proteins are transferred to a membrane and probed.)

The target in assay [5] is T2, GST-XIAP fusion protein (Homo sapiens (Human), UniProt P98170 1-497).
T2 construct: also called pGEX-XIAP; not shown: glutathione-S-transferase (GST) of a pGEX vector
T2 sequence (P98170 whole entry, the tested form may be a part): as the sequence (P98170 whole entry) above
The experiment in a line: GST-XIAP pull-down from lysate of transfected COS-7 cells, Western blot with anti-AU5. Here is the method:
FIG. 3. ARTS specifically binds XIAP in vitro. In vitro binding was tested using a GST pull-down assay. A-B. COS-7 cells were transiently transfected with myc-tagged XIAP. GST pull-down was performed using GST-ARTS and Western blot using anti-XIAP and (A) and anti myc (B). C. COS-7 cells were transiently transfected with AU5-ARTS, AU5-ARTSDC or AU5-H5. GST pull down was performed using GST-XIAP and Western blot with anti-AU5. Binding to glutathione beads alone served as a negative control.
Cells were lysed in RIPA buffer (150 mM NaCl, 50 mM Tris-HCl (pH 8), 1% NP-40, 0.1% SDS, 0.5% deoxycholate acid containing protease inhibitors (mini Complete, Roche)). Samples were divided into two tubes; one was rotated for 4 h at 4° C. with GST-ARTS fusion protein coupled with the glutathione beads, or GST-XIAP fusion protein. The second tube was incubated with glutathione beads alone (negative control). Samples were centrifuged at 4000-RPM at 4° C. for 4 minute and washed five times in lysis buffer, then boiled in sample buffer for 5 minutes to elute bound proteins Proteins were separated on 12.5% SDS-PAGE gel followed by Western blot analysis using monoclonal anti-ARTS antibody (Sigma), monoclonal anti-XIAP antibody (BD Transduction Laboratories) or monoclonal anti-myc antibody (Clontech). […]

Assay [6] addresses T3, XIAP (Homo sapiens, UniProt P98170).
T3 construct: made in house; host or cells: bacteria (pGEX-XIAP plasmid obtained from Dr. Colin S. Duckett)
The experiment in a line: GST pull-down assay of ARTS and XIAP. Format: binding. As to conditions: lysates of COS-7 cells transfected with AU5-tagged construct; Western blot anti-AU5. An excerpt: For the glutathione-S-transferase (GST)-pull down assays, ARTS was subcloned into the pGEX 4T™ (Pharmacia Biotech) construct; GST-ARTS fusion protein was generated by Polymerase Chain Reaction (PCR) using the following primers: • BamHI-5′-[…]-3′ (SEQ ID No: 4) and • EcoRI-5′ […]-3′ (SEQ ID No: 5) and cloned into BamHI and EcoRI sites in pGEX 4T. Preparation of Beads
For in vitro binding studies, recombinant GST-ARTS or GST-XIAP fusion proteins were purified from bacteria. After sonication, 0.1% Triton X-100 and protease inhibitors (Mini-Complete™, Roche) were added to the bacterial extract followed by 10,000 rotations per minute (RPM) centrifugation. Supernatants of bacterial extracts were collected and incubated in the presence of glutathione-Sepharose 4B beads (Amersham Biosciences) for 30 minute at 4° C. The beads were washed three times.
Cells were lysed in RIPA buffer (150 mM NaCl, 50 mM Tris-HCl (pH 8), 1% NP-40, 0.1% SDS, 0.5% deoxycholate acid containing protease inhibitors (mini Complete, Roche)). Samples were divided into two tubes; one was rotated for 4 h at 4° C. with GST-ARTS fusion protein coupled with the glutathione beads, or GST-XIAP fusion protein. The second tube was incubated with glutathione beads alone (negative control). Samples were centrifuged at 4000-RPM at 4° C. for 4 minute and washed five times in lysis buffer, then boiled in sample buffer for 5 minutes to elute bound proteins Proteins were separated on 12.5% SDS-PAGE gel followed by Western blot analysis using monoclonal anti-ARTS antibody (Sigma), monoclonal anti-XIAP antibody (BD Transduction Laboratories) or monoclonal anti-myc antibody (Clontech).

Assay [7] deals with COS-7 cells. The experiment in a line: Apoptosis assays (TUNEL, anti-H2A.X) in COS-7 cells. Also noted: induction of apoptosis (TUNEL): dose or concentration left out as unconfirmed. The assay is classed as cell-based, African Green Monkey. As to conditions: transiently transfected COS-7 cells, staurosporine (STS) for 1 or 3 hours. Here is the method: Apoptotic cells were detected using the anti-H2A.X antibody (Upstate; Paull, et al., 2000) or TUNEL. For TUNEL assays, COS-7 cells were transiently transfected with AU5-ARTS, AU5-ARTSΔC, AU5-ARTSmGTP and AU5-H5. Twenty-four hours after transfection, the cells were treated with staurosporine (STS) ([…]) for 1 or 3 hours, then fixed and permeabilized. Apoptosis levels were determined using the TUNEL. In situ™ cell death detection TMR kit (Roche) according to the manufacturer's protocol. All slides were coded and experiments were performed in a blind manner.
as §2

Where a SMILES comes first, the peptide text is derived from it. The star is where a group is joined. Cbz = O=C(OCc1ccccc1)*

T3 sequence (P98170 whole entry): as above

On to `COC(=O)CC(NC(=O)OC(C)(C)C)C(=O)CF` (centres unmarked) [BOC, BOC-Asp(Ome)CH2F, reference compound], for which, in assay [1], the “nuclear translocation of ARTS” value is listed as “nuclear translocation of ARTS was blocked”. In addition, in assay [2] (COS-7 cells treated with staurosporine with or without BOC), the “sensitivity of the reduction of XIAP protein to caspase inhibition” value is listed as “not sensitive”. The “formation of ARTS-XIAP complexes” value in assay [3] (COS-7 cells treated with staurosporine in the presence of caspase inhibitor BOC) was “did not inhibit, and in fact slightly increased”. Take `CC(C)C[C@@H](C=O)NC(=O)[C@H](CC(C)C)NC(=O)[C@H](CC(C)C)NC(=O)OCc1ccccc1` [MG132, reference compound] (Cbz-Leu-Leu-Leu-aldehyde): the “ARTS-induced reduction of XIAP levels” value in assay [2] (cells treated for 2 hours with 20 mM MG132 prior to induction of apoptosis, data not shown) was “blocked ARTS-induced reduction of XIAP levels”.

B1: AU5-ARTSmGTP (other)
chain: MIKRFLEDTTDDGELSKFVKDFSGNASCHPPEAKTWASRPQVPEPRPQAPDLYDDDLEFRPPSRPQSSDNQQYFCAPAPLSPSARPRSPWGKLDPYDSSEDDKEYVGFATLPNQVHRKSVKKGFDFTLMVAGESGLENPTLVNSLFLTDLYRDRKLLGAEERIMQTVEITKHAVDIEEKGVRLRLTIVDTPGFGDAVNNTECWKPVAEYIDQQFEQYFRDESGLNRKNIQDNRVHCCLYFISPFGHGYGPSLRLLAPPGAVKGTGQEHQGQGCH
notes: not shown: AU5 tag at the N' terminus
On to B1, for which the binding result in assay [4] is listed as “no binding”.

B2: ARTSmGTP: ARTS mutant, three amino acids (G K S with E N P) replaced at the GTP binding site (protein)
chain: B1 chain
modifications: left off: small tags and cut ends
On to B2, for which, in assay [3] (COS-7 cells co-transfected with pcDNA-mycXIAP and AU5-tagged construct), the “binding to XIAP in co-IP” value is “Neither of these mutants bound to XIAP”.

B3: AU5-ARTS ΔC (other)
chain: MIKRFLEDTTDDGELSKFVKDFSGNASCHPPEAKTWASRPQVPEPRPQAPDLYDDDLEFRPPSRPQSSDNQQYFCAPAPLSPSARPRSPWGKLDPYDSSEDDKEYVGFATLPNQVHRKSVKKGFDFTLMVAGESGLGKSTLVNSLFLTDLYRDRKLLGAEERIMQTVEITKHAVDIEEKGVRLRLTIVDTPGFGDAVNNTECWKPV
notes: 1-206 is 274 minus 68; also called AU5-ARTSDC; not shown: AU5 tag at the N' terminus
In the case of B3, the binding result in assay [5] is “no binding”.

B4: ARTSΔC: ARTS construct that lacks 68 amino acids at the unique ARTS C′-terminal sequence (protein)
chain: B3 chain
modifications: left off: small tags and cut ends
B4: the “binding to GST-XIAP” value in assay [6] is recorded as “Neither ARTSΔC nor H5 were able to bind to XIAP”. The “induction of apoptosis (TUNEL)” value in assay [7] is recorded as “did not induce apoptosis”.

B5: AU5-H5 (other, human, UniProt O43236-1 1-478, looked up)
chain: MDRSLGWQGNSVPEDRTEAGIKRFLEDTTDDGELSKFVKDFSGNASCHPPEAKTWASRPQVPEPRPQAPDLYDDDLEFRPPSRPQSSDNQQYFCAPAPLSPSARPRSPWGKLDPYDSSEDDKEYVGFATLPNQVHRKSVKKGFDFTLMVAGESGLGKSTLVNSLFLTDLYRDRKLLGAEERIMQTVEITKHAVDIEEKGVRLRLTIVDTPGFGDAVNNTECWKPVAEYIDQQFEQYFRDESGLNRKNIQDNRVHCCLYFISPFGHGLRPLDVEFMKALHQRVNIVPILAKADTLTPPEVDHKKRKIREEIEHFGIKIYQFPDCDSDEDEDFKLQDQALKESIPFAVIGSNTVVEARGRRVRGRLYPWGIVEVENPGHCDFVKLRTMLVRTHMQDLKDVTRETHYENYRAQCIQSMTRLVVKERNRNKLTRESGTDFPIPAVPPGTDPETEKLIREKDEELRRMQEMLHKIQKQMKENY
notes: Expressed in transfected COS-7 cells; The construct came from Dr. Seong-Jin Kim; also called pEF1-AU5-H5; H5 septin protein; not shown: AU5 tag
Consider B5, for which the binding result in assay [5] and in assay [4] was “no binding” each time.

(Values after patent US20050227302A1, “Induction of apoptosis via ARTS-IAP complexes” (priority 2004, published 2005).)
